This is an account of results in patent US11866472B2, “Peptide for treating retinitis pigmentosa” (DAIICHI SANKYO COMPANY, LIMITED, priority 2018, dated 2024).

Residue numbers refer to the chain shown, from its start. Numbers in names are those of the source.

One assay addresses T1, HTRA1 (cat) (Homo sapiens, UniProt Q92743).
T1 construct: The protease domain (158Gly to 373Lys), which excludes the N-terminal domain and the PDZ domain; made in house; host or cells: E. coli BL21 (DE3)
The assay is described as follows: HTRA1 (cat) inhibitory activity using peptide substrate H2-Opt (Example 3-1). Format: biochemical. Particulars: decomposition rate of H2-Opt; borate buffer pH 8.5; peptide 1.875 to 1,000 nM. How it is done:
A substrate peptide H2-Opt (Mca-IRRVSYSFK(Dnp)K) (SEQ ID NO:66) (Peptide Institute, Inc.: SEQ ID NO: 54, FIG. 8) was dissolved at 10 mM in DMSO, diluted with an assay buffer (50 mM borate and 150 mM NaCl, pH 8.5), and used at a final concentration of 10 μM. HTRA1 (HTRA1 (cat) or HTRA1 (full)) and each HTRA1-inhibiting peptide diluted with an assay buffer were mixed at 25 μL each and reacted at 37° C. for 20 minutes. Then, 50 μL of the substrate diluted with an assay buffer was added thereto. A fluorescent signal (excitation at 328 nm/emission at 393 nm) was measured using Enspire (PerkinElmer, Inc.). The final concentration of HTRA1 was 100 nM, and the final concentration of the HTRA1-inhibiting peptide was 1.875 to 1,000 nM. PROTEOSAV® SS96F black plate (Sumitomo Bakelite Co., Ltd.) was used in the reaction and the measurement.
The substrate peptide decomposition rate of the HTRA1-inhibiting peptide at each concentration was calculated. When the decomposition rate at an inhibitor concentration of 0 nM was defined as 100%, the HTRA1 (cat) and HTRA1 (full) inhibitory activity of each HTRA1-inhibiting peptide was evaluated (FIGS. 2 and 3).

For assay [1], the system named is rat model of retinal damage induced by light exposure. Description: Retinal protective effect in rat model of retinal damage induced by light exposure. It is filed as in vivo. How it is done: Rat models of retinal damage induced by light exposure are models that induce the cell death of retinal photoreceptor cells by light exposure and are universally used as model animals of retinal degeneration (Daniel T. Organisciak et al., (1996) Invest Ophthalmol Vis Sci. Vol. 37 (No. 11): p. 2243-2257). A 0.5% (W/V) tropicamide-0.5% phenylephrine hydrochloride ophthalmic solution was ocularly instilled under adaptation to darkness to rats adapted to darkness for 72 hours. Then, the rats were exposed to white light of 5500 Lux for 3 hours. The rats thus exposed were adapted again to darkness for about 24 hours and then raised for 2 days under light-dark conditions of ordinary raising. After euthanasia, the eyeballs were excised and fixed by dipping in a 3.7% (W/V) formaldehyde-0.5 to 1% (W/V) methanol-0.2% (W/V) picric acid fixative for 24 hours or longer. After paraffin embedding, thin sliced sections were prepared. The sections were stained with hematoxylin-eosin, and a nucleus count in an outer nuclear layer of a cross-section of the retina was determined to evaluate retinal damage.
Immediately before light exposure of rats, 5 μL of HTRA1-inhibiting peptide H308 having a concentration of 0.04 mg/mL or 0.2 mg/mL was intravitreally administered under anesthesia. n=4 for a normal saline administration group, and n=5 for the other groups.
The retinal protective effects of three HTRA1-inhibiting peptides prepared in Example 6 were evaluated using the rat models of retinal damage induced by light exposure, constructed in Example (5-1). The operation followed Example 5. n=6 for all groups.

Assay [2] has as its system ARPE-19 cells (VEGF mRNA). Description: VEGF mRNA induction test using human retinal pigment epithelial cells ARPE-19. Format: cell-based. Particulars: 1 μM peptide co-added with H2O2 500 μM, normal human serum complement 25% and HTRA1 1 μM; 4 hours. The method, then: ARPE-19 cells were cultured until confluent in 12 mm Transwell with […] Pore Polyester Membrane Insert, Sterile (Corning Inc.) under conditions of 37° C. and 5% CO2 using a DMEM/F-12 medium (Wako Pure Chemical Industries, Ltd.) containing 10% fetal bovine serum (FBS) and penicillin-streptomycin (Thermo Fisher Scientific Inc.). Then, the cells were cultured in FBS-free DMEM/F-12 for 5 days. H2O2 (final concentration: 500 μM) was added to the upper and lower layers of the chamber, and normal human serum complement (Quidel Corp.) (final concentration: 25%) was added to the upper layer of the chamber. […] Four hours later, the culture supernatant was removed, and the cells were washed with PBS. Then, mRNA was extracted using SuperPrep™ Cell Lysis & RT Kit for qPCR (Toyobo Co., Ltd.) and subjected to a reverse transcription reaction. The mRNA level of VEGF was quantitatively analyzed by TaqMan Gene Expression Assays (Hs000900055_m1 and Hs02786624_g1; Thermo Fisher Scientific Inc.) using a 7900HT Fast Real-Time PCR System (Applied Biosystems, Inc.). GAPDH was used in the correction of the mRNA level.

Assay [3] concerns human umbilical vein endothelial cells (HUVEC). Description: HUVEC migration test. It is filed as cell-based. To be noted: 300 nM in EGM growth medium; 2 hours. The method, then: HUVEC (Kurabo Industries Ltd.) was cultured for 18 hours under conditions of 37° C. and 5% CO2 in a medium (0.1% BSA-containing serum-free EGM) in which EBM™-2 basal medium (Lonza Walkersville, Inc.) containing 0.1% BSA was supplemented with an EGM™-2 SingleQuots™ additive factor set except for serum and VEGF. Then, the cells were adjusted to 4×10^5 cells/mL with 0.1% BSA-containing serum-free EGM. 4×10^5 cells/mL of the HUVEC suspension was added at 50 μL/well to the upper layer of a chamber of a Corning FluoroBlok HTS 96 Well Multiwell Permeable Support System with a […] High Density PET Membrane (Corning Inc.) having a gelatin-coated membrane. Then, each sample described below (medium 1, 2 or 3) was added at 210 μL/well to the lower layer of the chamber (n=3). […]
A FluoroBlok HTS 96 Well Multiwell Support System supplemented with the cells and the sample was incubated for 2 hours under conditions of 37° C. and 5% CO2. […] The fluorescence intensity (excitation wavelength/fluorescence wavelength: 485 nm/535 nm) of each well was measured using a plate reader (ARVO-MX, PerkinElmer, Inc.), and the migrated cells were counted for each well according to the following expression. Migrated cells=Mean fluorescence intensity of wells containing HUVEC (n=3)—Mean fluorescence intensity of blank wells (n=3).

Assay [4] deals with HFD-HQ-loaded 3-year-old rabbits. The assay is described as follows: Protective effect on RPE cells in rabbit retinal damage model (HFD-HQ loading). It is filed as in vivo. To be noted: 50 μL of 40 mg/mL intravitreally 2 months after start of HFD-HQ; evaluated at 4 months; vs normal saline fellow eye. The source says:
Retinal damage models prepared using high-fat diet (HFD) and hydroquinone (HQ) are models in which oxidative stress is induced by a pro-oxidant to cause retinal damage. These models have been reported only for mice (Diego G. Espinosa-Heidmann et al., (2006) Invest Ophthalmol Vis Sci., Vol. 47 (No. 2): p. 729-737). Accordingly, 3-year-old JW rabbits were fed for 4 months with RC4 (Oriental Yeast Co., Ltd.) diet containing 1.5% (W/V) coconut oil-0.25% (W/V) cholesterol-1.5% (W/V) peanut oil-2.4% (W/V) hydroquinone (HFD-HQ) to construct rabbit retinal damage models. After euthanasia, the eyeballs were excised, and the anterior segment of the eye was removed by an external incision of about 5 mm from the corneal limbus. The vitreous body was further separated. Then, retina-choroid-sclera was fixed by dipping in 4% (W/V) paraformaldehyde fixative for 24 hours or longer. […] The stained choroid was observed under a fluorescence microscope (BZ-9000; Keyence Corp.). The area of stained retinal pigment epithelial (RPE) cells was determined to evaluate RPE cell damage.
The retinal protective effect of the HTRA1-inhibiting peptide H308 prepared in Example 1 was evaluated using the rabbit models. […]
After 4 months from the start of feeding, RPE cell hypertrophy in the model animals was evaluated. […]

Where [5] appears, read: 0.2 and 1 μg/eye intravitreally, n=6.

T1 sequence (Q92743 158-373): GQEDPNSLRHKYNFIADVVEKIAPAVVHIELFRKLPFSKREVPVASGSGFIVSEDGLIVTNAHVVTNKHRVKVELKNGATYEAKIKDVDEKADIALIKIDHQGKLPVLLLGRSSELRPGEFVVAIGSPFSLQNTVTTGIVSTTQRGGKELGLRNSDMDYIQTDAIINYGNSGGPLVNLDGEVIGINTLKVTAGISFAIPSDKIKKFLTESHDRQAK

B1: wild-type SPINK2: human serine protease inhibitor Kazal-type 2, 7 kDa, SEQ ID NO: 1 (FIG. 13); control (protein, listed as Homo sapiens)
chain: DPQFGLFSKYRTPNCSQYRLPGCPRHFNPVCGSDMSTYANECTLCMKIREGGHNIKIIRNGPC
With B1, the “HTRA1 (cat) inhibitory activity (in words)” value with HTRA1 (cat) was “exhibited no HTRA1 inhibitory activity”.

B2: H308_D1G_S16A: N-terminal derivative of H308, 1Asp substituted with Gly, with S16A, SEQ ID NO: 24 (FIG. 36) (protein)
chain: GPQFGLFSKYRTPNCADHAGMACVALYEPVCGSDMSTYENECVLCMKIREGGHNIKIIRNGPCGG
Turning to B2, the “nucleus count in an outer nuclear layer on a cross-section of the retina” value (“nucleus count in an outer nuclear layer” for short) in assay [1] (setting [5]) is “suppressed a decrease in nucleus count in an outer nuclear layer”. Further, the “expression of VEGF mRNA” value in assay [2] was “confirmed to suppress the expression of VEGF”. The “migration of HUVEC induced in serum-containing medium” value in assay [3] is listed as “suppressive effect on the migration of HUVEC”.

B3: H321AT_D1G_S16A: HTRA1-inhibiting peptide derivative, amino acid sequence SEQ ID NO: 28 (FIG. 40) (protein)
chain: B2 chain with H18F, A19D, V24Y, L26F, E39A, V43T
Turning to B3, the “nucleus count in an outer nuclear layer” value in assay [1] (setting [5]) was “suppressed a decrease in nucleus count in an outer nuclear layer”.

B4: H308: SPINK2 mutant HTRA1-inhibiting peptide, amino acid sequence SEQ ID NO: 9 (FIG. 21) (protein)
chain: B2 chain with G1D, A16S
Take B4: in assay [4], the “hypertrophy of RPE cells: average area of RPE cells” value was “exhibited a suppressive effect on the hypertrophy of RPE cells” and the “hypertrophy of RPE cells: number of RPE cells having a cell area of 1500 μm^2 or larger” value is “exhibited a suppressive effect on the hypertrophy of RPE cells”. Also, the “nucleus count in an outer nuclear layer” value in assay [1] (5 μL of 0.04 mg/mL or 0.2 mg/mL intravitreally immediately before light exposure, vs normal saline) is “effect of suppressing the decrease in nucleus count in an outer nuclear layer was confirmed”.

B5: H322AT_D1G_S16A: HTRA1-inhibiting peptide derivative, amino acid sequence SEQ ID NO: 29 (FIG. 41) (protein)
chain: B2 chain with D17Q, A19E, V24Y, E39A, V43T
As to B5, the “nucleus count in an outer nuclear layer” value in assay [1] (setting [5]) is reported as “suppressed a decrease in nucleus count in an outer nuclear layer”.
